The values below come from article PMC6547619, “Development of an anti‐BAG3 humanized antibody for treatment of pancreatic cancer” (Molecular Oncology, 2019).

Conditions in all cases: both partners purified
In assay [1] the target is T1, human recombinant BAG3 protein (Homo sapiens, UniProt O95817).
T1 construct: the cleavage released the full-length polypeptide; The ELISA methods say only 'human recombinant BAG3 protein'; For the flow cytometry it was labelled with FITC (FluoroTag FITC conjugation kit); also called rBAG3; full-length BAG3; not shown: biotinylated tag (AviTag, from the vector pAViTag-N N-His SUMO), N-terminal, cleaved; His, N-terminal, cleaved; SUMO, N-terminal, cleaved
Description: ELISA; direct ELISA; plates coated with human recombinant BAG3 (1 μg/mL in PBS); humanized antibodies in scalar dilutions, 500 to 15.6 ng/mL; HRP anti-human IgG, O.D. 450 nm.

Assay [2] deals with T2, E. coli rBAG3 (Abcam) (Homo sapiens (assumed; species of …, UniProt O95817).
T2 construct: BAG3 (BCL2-associated athanogene 3), recombinant, made in E. coli, bought from Abcam; Antigen of the SPR experiments only; no catalogue number is printed; also called antigen; source: bought: Abcam (E. coli rBAG3)
Description: SPR; Biacore 2000, 25 °C; humanized variants captured on an anti-human Fc antibody covalently coupled on a CM5 chip; rBAG3 flowed at variable concentrations.

Assay [3] concerns the target T2, E. coli rBAG3 (Abcam). The assay is described as follows: SPR; Biacore 2000, 25 °C; AC-2 captured on an anti-mouse Fc antibody covalently coupled on a CM5 chip; rBAG3 flowed at 0.39 to 200 nM; 2-state reaction model. A general note: SPR reads the build-up and loss of mass on a sensor chip optically.
The target of assay [4] is T3, murine rBAG3 (Mus musculus, UniProt Q9JLV1).
T3 construct: the cleavage released the full-length polypeptide; also called murine form of BAG3; not shown: biotinylated tag (AviTag, from the vector pAViTag-N N-His SUMO), N-terminal, cleaved; His, N-terminal, cleaved; SUMO, N-terminal, cleaved
The assay is described as follows: immunoprecipitation; BAG3-H2L4 used to immunoprecipitate murine rBAG3; immunoblot with a rabbit polyclonal anti-BAG3. (In western blotting, separated proteins are transferred to a membrane and probed.)

T2 sequence (O95817 whole entry): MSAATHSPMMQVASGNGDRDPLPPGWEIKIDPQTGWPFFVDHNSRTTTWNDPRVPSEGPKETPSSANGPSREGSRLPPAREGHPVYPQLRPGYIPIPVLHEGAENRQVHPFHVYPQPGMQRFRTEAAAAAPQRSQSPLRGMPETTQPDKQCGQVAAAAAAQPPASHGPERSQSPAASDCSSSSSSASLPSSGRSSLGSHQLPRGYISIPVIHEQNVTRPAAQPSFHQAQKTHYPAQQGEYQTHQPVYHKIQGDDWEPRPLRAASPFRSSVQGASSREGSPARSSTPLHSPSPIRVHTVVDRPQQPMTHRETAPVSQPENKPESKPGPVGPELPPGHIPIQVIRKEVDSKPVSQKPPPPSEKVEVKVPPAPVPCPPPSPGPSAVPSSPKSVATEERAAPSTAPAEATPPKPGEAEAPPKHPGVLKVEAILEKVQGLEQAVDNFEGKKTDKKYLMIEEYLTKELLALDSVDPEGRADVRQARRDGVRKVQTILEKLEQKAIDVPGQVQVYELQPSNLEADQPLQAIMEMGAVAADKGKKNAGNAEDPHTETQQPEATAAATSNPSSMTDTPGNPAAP
T1 sequence (O95817 whole entry): as above
T3 sequence (Q9JLV1 whole entry): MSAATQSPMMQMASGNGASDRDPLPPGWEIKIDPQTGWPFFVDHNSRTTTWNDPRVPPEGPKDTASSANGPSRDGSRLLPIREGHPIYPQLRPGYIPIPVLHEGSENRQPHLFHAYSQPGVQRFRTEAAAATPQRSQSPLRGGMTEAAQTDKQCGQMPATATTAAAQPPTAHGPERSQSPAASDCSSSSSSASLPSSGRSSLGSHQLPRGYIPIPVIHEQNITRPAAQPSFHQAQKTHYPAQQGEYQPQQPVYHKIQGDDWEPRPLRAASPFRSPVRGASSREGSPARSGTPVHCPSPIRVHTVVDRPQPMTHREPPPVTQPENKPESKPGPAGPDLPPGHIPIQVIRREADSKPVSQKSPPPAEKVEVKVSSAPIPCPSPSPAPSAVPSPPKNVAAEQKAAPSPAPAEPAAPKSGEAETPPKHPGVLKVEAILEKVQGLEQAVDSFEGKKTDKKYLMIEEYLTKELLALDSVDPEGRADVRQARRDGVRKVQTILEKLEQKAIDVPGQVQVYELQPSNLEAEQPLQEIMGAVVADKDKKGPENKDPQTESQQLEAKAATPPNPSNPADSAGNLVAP

B1: BAG3-H4L2 (antibody, V domains shown)
VH: EVQLVQSGAEVKKPGATVKISCKVSGFNIKDTYMYWVQQAPGKGLEWMGGVDPANGNTRYDPKFQGRVTITADTSTDTAYMELSSLRSEDTAVYYCARDGAMDYWGQGTLVTVSS
VL: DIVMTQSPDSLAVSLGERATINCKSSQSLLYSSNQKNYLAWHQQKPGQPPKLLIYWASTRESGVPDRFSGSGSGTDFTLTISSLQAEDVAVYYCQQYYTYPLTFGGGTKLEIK
notes: humanized heavy chain variant H4: CDRs of AC-2 (humanized light chain variant L2: CDRs of AC-2 (IgG1, kappa)); source: CHO, transiently transfected, purified from supernatant (Protein A FPLC), Evitria AG
Consider B1, for which the binding result in assay [1] and in assay [2] was “binds” each time.

B2: murine anti-BAG3 antibody AC-2 (antibody, V domains shown)
VH: EVQLQQSGAELVKPGASVKLSCTASGFNIKDTYMYWVKQRPEQGLEWIGGVDPANGNTRYDPKFQGKATLTADTSSSTAYLQLSSLTSEDTAVYYCGRDGAMDYWGQGTSVTVSS
VL: DIVMSQSPSSLAVSVGEKVTMSCKSSQSLLYSSNQKNYLAWHQQKPGQSPKLLIYWASTRESGVPDRFTGSGSGTDFTLTISSVKAEDLAIYYCQQYYTYPLTFGAGTKLELK
notes: murine heavy chain; murine light chain; also called mAb AC-2; anti-BAG3 clone AC-2; source: mouse hybridoma clone AC-2 (supernatant in the peptide ELISA)
For orientation: Kd means the equilibrium constant for the complex coming apart. Read a low Kd as a tighter complex. In turn, B2 came in with a Kd in assay [3] of 14.4 nM.

B3: BAG3-H2L4 (antibody, V domains shown)
VH: QVQLVQSGAEVKKPGASVKVSCKASGFNIKDTYMYWVRQAPGQGLEWMGGVDPANGNTRYDPKFQGRVTLTRDTSTSTVYMELSSLRSEDTAVYYCGRDGAMDYWGQGTLVTVSS
VL: DIVMTQSPDSLAVSLGERATMSCKSSQSLLYSSNQKNYLAWHQQKPGQPPKLLIYWASTRESGVPDRFSGSGSGTDFTLTISSLQAEDLAIYYCQQYYTYPLTFGAGTKLEIK
notes: humanized heavy chain variant H2: CDRs of AC-2 (humanized light chain variant L4: CDRs of AC-2 (IgG1, kappa)); also called humanized anti-BAG3 antibody; humanized BAG3-H2L4 antibody; source: CHO, transiently transfected, purified from supernatant (Protein A FPLC), Evitria AG
Consider B3, for which the binding result in assay [1], in assay [2] and in assay [4] was “binds” in each case.
